What was measured:
[1] = Drug release and stability of CDP-linker-Tofacitinib conjugate nanoparticles in PBS; type: physicochemical; details: 1x PBS pH 7.4, 37° C.; for In vitro release of free drug (24 hrs in PBS at 37° C.): free drug/conjugated drug
Description: The drug release and stability method experiments were run using the following CDP-linker-Tofacitinib nanoparticles: CDP-Gly-Tofac (prepared by the method described in Example 5) and CDP-Hex-Tofac) (prepared by the method described in Example 10).
A 2.5 mg/mL (with regard to polymer) solution of each CDP-linker-Tofac nanoparticle was prepared in lx PBS buffer (pH=7.4). An aliquot of 150 μL was transferred into corresponding HPLC vials. A vial containing each CDP-linker-Tofac nanoparticle in PBS pH 7.4 for each designated time point was placed in a water bath at 37° C. Samples were mixed using a water bath shaker at 100 rpm during the experiments. At each designated time point, a vial was removed for each CDP-linker-Tofac nanoparticle and processed for HPLC using a sample preparation procedure.
To prepare a sample for HPLC analysis, each vial containing 150 μL of sample was mixed with 75 μL of 0.1% formic acid in acetonitrile. If there was any precipitated material in the vial, the contents were also stirred to dissolve the precipitate. If the sample was still opaque, an additional 25 μL of 0.1% formic acid in acetonitrile was added. HPLC analysis was used to determine the amount of free Tofacitinib and the amount of conjugated Tofacitinib in the sample for a given time point.
For the HPLC analysis at each time point, the peak areas of all relevant peaks from the chromatograms were retrieved and the concentration of free and conjugated Tofacitinib was calculated. The sample degradation was calculated based on the percentage of the amount of conjugated drug with regard to the initial starting point of the experiment (at t=0). The drug release was calculated based on the sum of free Tofacitinib and Tofacitinib main degradants at each time point.

[2] = Particle size of formulated nanoparticles (particle sizer); type: physicochemical; details: nanoparticles in water after TFF and 0.22 µm filtration
Description: (§1) The reaction mixture was worked up by precipitating the polymer in 15 volumes of acetone (150 mL). The polymer precipitated out immediately as a lump. The solution was stirred for 30 minutes and then the slightly turbid supernatant was decanted. The polymer precipitate was stirred in […] for 30 minutes and then dissolved 70 mL of water to prepare a ˜10 mg/mL polymer concentration. The polymer dissolved smoothly in water and the polymer solution was then filtered through a 0.22 p.m PES membrane. This solution was then washed using TFF (3×30K capsules) using 10 volumes of ultrapure water at pH 3. After diafiltration, the solution was concentrated down to approximately half the volume and the concentrated solution was filtered with a 0.22 p.m cellulose nitrate membrane. The filtered solution was analyzed for particle size using a particle sizer and Tofacitinib concentration using HPLC.
as §1, with “in 90” for “70”

[3] = Pharmacokinetic study, plasma levels of free and bound Tofacitinib by HPLC/MS/MS; type: in vivo, Mice (C57 B16 strain); design: Cl: unit not given here; details: mice; for AUC / Cl / Vd / t1/2: analyte: Conjugate, single bolus 3 mg/kg; for Bioavailability via SC, of the IV based on AUC / Half-life for conjugate after SC dosing relative to the IV dose: 3 mg/kg SC vs IV; for IV AUC relative to the drug dosed PO alone: conjugate IV vs unconjugated tofacitinib PO
Description: Mice (C57 B16 strain) were treated by single bolus injection of each linker at 3 mg/kg. Blood samples were collected from individual animals and plasma made using EDTA as an anticoagulant. Levels of free and bound Tofacitinib were measured in the plasma samples using HPLC/MS/MS.

[4] = tested on: Adjuvant-Induced Arthritis (AIA) in Lewis Rat; assay: Lewis rat adjuvant-induced arthritis (AIA) model; type: in vivo; details: for % Max Change in Paw Volume / % Max Change in body weight: day of maximum in brackets; for Spleen weight with treatment (in words): regimens of Table 4
Excerpt: Animal and Facility: 75 female Lewis Rats at the age of 6 weeks were allowed to acclimate for 7 days in the animal facility (Cephrim Biosciences, Inc., Wellesley, Mass.). Animal housing, handling and procedures followed protocols and guidelines approved by the Institutional Animal Care and Use Committee (IACUC) of Cephrim Biosciences, Inc.
In vivo Adjuvant-Induced Arthritis (AIA) in Lewis Rat: The adjuvant used for induction of arthritis was purchased from Chondrex Inc. (Redmond, Wash.), a suspension that contains 10 mg/mL of heat-killed mycobacteria in incomplete Freund's adjuvant. On the day of induction, the rat was first anesthetized and 0.05 mL of the Complete Freund's Adjuvant (CFA) was subcutaneously injected into the sub-plantar area of the rat footpad. The needle was inserted just under the skin of the footpad pointing toward the ankle to maximize the immune response to the CFA. The rat body weight, paw volumes and clinical assessments were monitored closely after the induction. Once the secondary swelling appeared around the opposite rat paws or ankles, the rats were assigned in one of 10 groups (N=5) according to the severity of arthritis (e.g. the paw volume) and the treatments started at that time (see Table 4).
Rat arthritis was evaluated for body weight, paw volumes and clinical score once every other day. Special care including placing water and food gel supplements in the cages were given for those rats once it became difficult to move around due to their hind limb arthritis. The severity of arthritis was scored by visual inspection. Three un-injected paws were scored on a scale of 0 to 4, where 0=normal; 1, only on few digits; 2, on the paw; 3, on the ankle and 4, all swelling below ankle. The maximum score was 12. In addition to daily scores, the maximum arthritis index (MAI) was calculated at the end of the study for each rat by adding the greatest score recorded for each paw. Foot swelling was also determined objectively by measuring paw volume with a plethysmograph for the secondary arthritis (un-injected foot) and thickness using a caliper for the primary arthritis (injected foot).
Treatment Preparation: Dexamethasone stock was first dissolved in dimethyl sulfoxide at 1 mg/ml and kept in dark at room temperature. The corresponding dosing solution was prepared prior to each treatment by a 1:10 fold dilution with phosphate buffered saline (PBS). The dexamethasone dosing solution was given to the rats subcutaneously (SC) at 10 mL/kg. Tofacitinib (unconjugated parent drug) was added in 5% methylcellulose at 1 mg/mL and 0.25% of Tween-80. A homogeneous dosing suspension of tofacitinib was prepared using a mechanical homogenizer. The tofacitinib suspension was prepared daily and was given to rats by an oral gavage at 10 mL/kg. CDP-hexanoate-tofacitinib conjugate nanoparticles were kept in 4° C. until the end of the dosing period. They were given to their respective groups of rats by subcutaneous route at 10 mL/kg.

[5] = Tofacitinib dosed 5 mg PO twice daily; cited from earlier work

Compound	In vitro degradation of conjugate (24 hrs in PBS at 37° C.) [1]	In vitro release of free drug (24 hrs in PBS at 37° C.) [1]	Dv50 [2]	Dv90 [2]	Particle PDI [2]	Zavg [2]	AUC ([3]; route IV, plasma)	Cl ([3]; route IV, plasma)	Vd ([3]; route IV, plasma)	t1/2 ([3]; route IV, plasma)	AUC ([3]; route SC, plasma)	Cl ([3]; route SC, plasma)	Vd ([3]; route SC, plasma)	t1/2 ([3]; route SC, plasma)	Half-life for conjugate after SC dosing relative to the IV dose [3]	IV AUC relative to the drug dosed PO alone [3]	Spleen weight with treatment (in words) ([4]; AIA rats)	also measured
CDP-Tofacitinib Ethylene Glycol Monoglycinate [CDP-Glycine-Tofacitinib]	15.23%	9.45%	11.4 nm	19.8 nm	0.418	26.23 nm	2061.85 µg·h/mL	0.04	2.6 mL	50 h	1254.162 µg·h/mL	0.06	2.4 mL	28 h	doubling of half-life	~1000 ×		In vitro release of free drug (24 hrs in PBS at 37° C.) ([1]; listed as CDP-Glycine-Tofac): 9.45%; Bioavailability via SC, of the IV based on AUC [3]: 60%; Free levels, of the circulating conjugate ([3]; 3 mg/kg, plasma): less than 1%
C[C@@H]1CCN(C(=O)CC#N)C[C@@H]1N(C)c1ncnc2[nH]ccc12 [Tofacitinib, reference compound]																	declined	AVE Spleen Weight ([4]; 10 mg/kg, bid x 14, po): 0.392 g; MAI (maximum arthritis index) ([4]; 10 mg/kg, bid x 14, po): 30; % Max Change in Paw Volume ([4]; 10 mg/kg, bid x 14, po): +30.7% (D14); % Max Change in body weight ([4]; 10 mg/kg, bid x 14, po): −9.0% (d13); half-life [5]: 3 to 5 h
C[C@@H]1C[C@H]2[C@@H]3CCC4=CC(=O)C=C[C@]4(C)[C@@]3(F)[C@@H](O)C[C@]2(C)[C@@]1(O)C(=O)CO [Dexamethasone, reference compound]																	declined	AVE Spleen Weight ([4]; 1 mg/kg, q2d x 7, sc): 0.253 g; MAI (maximum arthritis index) ([4]; 1 mg/kg, q2d x 7, sc): 29; % Max Change in Paw Volume ([4]; 1 mg/kg, q2d x 7, sc): +26.5% (d13); % Max Change in body weight ([4]; 1 mg/kg, q2d x 7, sc): −13.5% (d18)
CDP-Tofacitinib Ethylene Glycol Monohexanoate [CDP-Hexanoate-Tofacitinib]	3.54%	2.06%	12.8 nm	21.7 nm	0.218	20.64 nm	1030.865 µg·h/mL	0.07	2.4 mL	23.2 h	569.866 µg·h/mL	0.132	8.9 mL	47 h	increased by two fold	~1000 ×	maintained	In vitro release of free drug (24 hrs in PBS at 37° C.) ([1]; listed as CDP-Hex-Tofac): 2.06%; Bioavailability via SC, of the IV based on AUC ([3]; 3 mg/kg): 60%; Bioavailability via SC, of the IV based on AUC ([3]; listed as CDP-Hexanoate-Tofacitinib Conjugate, 3 mg/kg): approximately 60%; Levels of released drug, of the total ([3]; 3 mg/kg, plasma): approximately 5%; AVE Spleen Weight ([4]; 0.3 mg/kg, q7d x 2, sc): 0.643 g; MAI (maximum arthritis index) ([4]; 0.3 mg/kg, q7d x 2, sc): 41; % Max Change in Paw Volume ([4]; 0.3 mg/kg, q7d x 2, sc): +48.0% (d16); % Max Change in body weight ([4]; 0.3 mg/kg, q7d x 2, sc): −12.9% (d16); AVE Spleen Weight ([4]; 1 mg/kg, q7d x 2, sc): 0.642 g; MAI (maximum arthritis index) ([4]; 1 mg/kg, q7d x 2, sc): 46; % Max Change in Paw Volume ([4]; 1 mg/kg, q7d x 2, sc): +45.2% (d16); % Max Change in body weight ([4]; 1 mg/kg, q7d x 2, sc): −14.5% (d18); Paw volume as a percent of the initial paw volume (Day 1) ([4]; 3 mg/kg q7d×2 sc, after two cycles (28 days), FIG. 16): below 100%; AVE Spleen Weight ([4]; 3 mg/kg, q7d x 2, sc): 0.606 g; MAI (maximum arthritis index) ([4]; 3 mg/kg, q7d x 2, sc): 39; % Max Change in Paw Volume ([4]; 3 mg/kg, q7d x 2, sc): +42.5% (d16); % Max Change in body weight ([4]; 3 mg/kg, q7d x 2, sc): −9.3% (d13); Cumulative dose giving similar efficacy, of the cumulative dose of unconjugated tofacitinib ([4]; 3 mg/kg/week vs. 140 mg/kg/week): 2%; Ankle swelling after treatment, of initial paw volume ([4]; AIA rats, level of healthy rats): 100%
